In data set [1] the target is human insulin receptor A (human) (UniProt P06213). The experiment in a line: radioligand binding.
The conditions of data set [2]: pigs; previously observed; cited from earlier work.

In turn, “NNC2215 (from UniProt P01308 90-110; P01308 25-53) (ligand)” came in with a fold increase in hIR-A affinity, 20 vs 0 mM glucose, without albumin in data set [1] of 6.8 fold.

For the substance insulin detemir, in data set [2], the “half-life after s.c. administration” value is 6.5 h.

The values above are taken from publication PMC11499270 (Nature, 2024).
